{
  "source": "patent US20120107301A1",
  "binders": {"B1": {"name": "additional IgG1k antibody clone A10 (antibody, from a related filing, V domains shown)", "VH": "EVQLQQSGPELEKPGASVKISCKASGYSFTGYNMNWVKQSNGKSLEWIGNIDPYYGDITYNQKFKGKATLTVDKSSSTAYMQLKSLTSEDSAVYYCARTATALYTMDYWGQGTSVTVSS", "VL": "EIVLTQSPAIMSASLGERVTMTCTASSSVSSSYLHWYQQKPGSSPKLWIYSTSNLASGVPARFSGSGSGTSYSLTISSMEAEDAATYYCHQYHRSPQTFGGGTKLEIK"}},
  "key": {"[1]": {"target": "L-SIGN expressed on K562 cells (human) (UniProt Q9H2X3)", "assay": "flow cytometry on K562/L-SIGN cells"}, "[2]": {"target": "recombinant human L-SIGN (human) (UniProt Q9H2X3)", "assay": "ELISA on recombinant L-SIGN"}, "[3]": {"target": "recombinant human DC-SIGN (human) (UniProt Q9NNX6)", "sequence (Q9NNX6 59-404 limits assumed)": "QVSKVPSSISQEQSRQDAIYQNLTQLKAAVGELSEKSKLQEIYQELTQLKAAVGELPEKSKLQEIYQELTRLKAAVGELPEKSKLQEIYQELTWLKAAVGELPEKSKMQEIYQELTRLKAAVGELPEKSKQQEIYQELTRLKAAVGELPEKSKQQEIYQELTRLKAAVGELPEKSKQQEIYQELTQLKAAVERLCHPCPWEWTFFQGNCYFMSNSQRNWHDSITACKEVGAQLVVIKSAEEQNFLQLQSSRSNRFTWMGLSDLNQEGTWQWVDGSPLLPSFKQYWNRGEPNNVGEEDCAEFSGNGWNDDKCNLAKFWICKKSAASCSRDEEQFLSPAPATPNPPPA", "assay": "ELISA on recombinant DC-SIGN"}},
  "data": [
    {"binder": "B1", "values": [
      {"measurement": "Geo. Mean Flourecence", "setting": "[1]", "value": 21.3},
      {"measurement": "OD405", "setting": "[2]", "value": 2.9, "unit": "OD405"},
      {"measurement": "OD405", "setting": "[3]", "value": 0.1, "unit": "OD405"}
    ]}
  ]
}
